In US20050249734A1:
Ends that are not written are not given here.

Assays:
[1] = biological target: somatostatin receptors on GH4 pituitary cells; experiment: cell-based or functional assay
[2] = biological target: somatostatin receptors on GH4 pituitary cells; experiment: displacement of 125I-somatostatin-14 from GH4 pituitary cells

inhibition of TRH-stimulated cAMP in GH4 cells [1] | inhibition of VIP-stimulated cAMP in GH4 cells [1] | Kd [2] | Molecule
10 nM | 50 % at 10^-6 M | 5 nM | somatostatin-14 peptide (from UniProt P61278 103-116)
10 nM | 50 % at 10^-6 M | 5 nM | PCKNFFWKTFSSCK-NH2 (cysteine pairing not given here) [cortistatin-14 peptide]
